Legend:
Details in all cases: GMSA: K-glu100 buffer (40 mM HEPES pH 8.0, 10 mM MgCl2, 100 mM K glutamate, 4 mM DTT, 500 ug/ml BSA), 15 min at 37 C, 1 nM DNA, 18-150 nM RNA polymerase …
[1] = molecular target: T1, EsigmaS RNA polymerase holoenzyme (reconstituted) (UniProt P13445+P0A7Z4+P0A8V2+P0A8T7+P0A800); assay: EMSA
[2] = molecular target: T2, Esigma70 RNA polymerase holoenzyme (reconstituted) (UniProt P00579+P0A7Z4+P0A8V2+P0A8T7+P0A800); assay: EMSA
[3] = molecular target: T1, EsigmaS RNA polymerase holoenzyme (reconstituted); assay: KMnO4 footprinting
[4] = molecular target: T2, Esigma70 RNA polymerase holoenzyme (reconstituted); assay: KMnO4 footprinting

| Sequence | binding [1] | binding [2] | binding [3] | binding [4] |
| --- | --- | --- | --- | --- |
| TATTCAGTCGCTGAAAAGCCGCTACGGCGAAAGTGAAGAGATCCTGTCGCTGCTTAATCTTTATCATAATCTGCTGCGGGAATGGTCGGAGATCTGATGCTTGAACTGCCCGAGTTCGTCCCTGGATTAGCTACACTTAACTGTACAAGTATTGATATGGGGAGGTCGATATGGCATCCGGTTGGGCTAACGATGACGCCGTCAACGAACAGATCAACAGTACAATT (double strand) [ybiI promoter fragment] | binds | binds more weakly | binds | binds more weakly |
| GATGGCGATAACTTCACTGGTGCGAAATGCGACCGAAGCAACCGCGCCATTACCGTCAATAGTAATCATATGACACCCTTACATTGCGCAAATGAGGGGCGCACGAAATTGCTGCGCGCCCAGTAGTAATCTTTCAATTTTAGCAAATGGCTTTCTTCTGCATTTTCGCTTTTGTGTCCCCCACATCAGCGTAATGAATGTTTTGATCAAACAGAGGGCAAAAAAATAGCCATAAAAAAGTAAAAATGCG (double strand) [ydbK promoter fragment] | binds |  | binds | binds |

Source: publication PMC4447067
